The values that follow come from patent publication US6410248.

The term Kd denotes a measure of binding affinity in units of concentration.

For the data set, the target named is Zif268 zinc fingers 1-3 (wild type) (UniProt P08046 SEQ:1-90). Description: EMSA; 15 mM Hepes-NaOH pH 7.9, 50 mM KCl, 50 mM K glutamate, 50 mM K acetate, 5 mM MgCl2, 20 uM ZnSO4, no competitor DNA. Background: In EMSA bound probe runs differently from free probe, usually more slowly.

B1: Zif268 site (dsDNA)
DNA 1: CCAGTAGCGGGGGCGTCCTCG
DNA 2: CGAGGACGCCCCCGCTACTGG
The molecule B1 came in with a Kd of 0.01 nM. In other words, the picomolar range.
